For one assay, the target named is T1, B7H3-hFc (human, UniProt Q5ZPR3 29-456).
T1 construct: also called recombinant B7H3-hFc; B7H3 ECD fused with human IgG1 Fc; not shown: human IgG1 Fc
T1 sequence: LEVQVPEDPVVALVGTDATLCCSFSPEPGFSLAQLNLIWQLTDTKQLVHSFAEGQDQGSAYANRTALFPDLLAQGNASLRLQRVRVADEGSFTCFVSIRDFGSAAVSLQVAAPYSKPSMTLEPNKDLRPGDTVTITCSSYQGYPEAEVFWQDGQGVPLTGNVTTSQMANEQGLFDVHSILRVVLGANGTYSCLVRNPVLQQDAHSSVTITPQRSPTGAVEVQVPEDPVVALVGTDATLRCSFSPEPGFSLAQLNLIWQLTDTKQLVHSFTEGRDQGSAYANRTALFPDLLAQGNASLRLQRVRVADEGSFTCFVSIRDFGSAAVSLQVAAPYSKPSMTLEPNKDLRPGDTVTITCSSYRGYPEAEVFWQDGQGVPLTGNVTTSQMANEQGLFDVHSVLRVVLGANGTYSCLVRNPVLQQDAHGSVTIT
Briefly: ELISA, B7H3-hFc coated, VH-His-FLAG detected with anti-FLAG-HRP. The source says:
FIGS. 4A-4C: Binding properties of the B7H3 binders. (FIG. 4A) SDS-PAGE analysis of the purified A1 and B1 binders (VH-His-FLAG fusion) from E. coli. Two micrograms of purified B7H3-hFc, non-reduced (Non.) or reduced (Red.) by β-mercaptoethanol, were separated on an 8% SDS-PAGE gel. Protein bands were visualized by Coomassie blue R-250 staining. (FIG. 4B) Protein binding affinity measurement by ELISA. Five micrograms of B7H3-hFc were coated on the ELISA plate, and different concentrations of domain antibodies were incubated with the plate, and binding was detected by HRP conjugated anti-FLAG mouse monoclonal antibody M2. The binding curves were plotted using the software GraphPad Prism and the calculated EC50 values were determined by the software's algorithm of hyperbola one site binding. (FIG. 4C) Cell binding determination by flow cytometry. Ten microgram per mL domain antibody was co-incubated with one million cells. Antibody binding was visualized by APC conjugated anti-FLAG monoclonal antibody. The curves labelled “1” represent cells stained with secondary antibody only; the curves labelled “2” represent cells stained with A1 or B1 domain antibody.
The VH coding sequences of binders A1 and B1 were fused with His-FLAG tag at their C-termini and cloned into an E. coli expression vector. […] The purified yield was 2 mg/L (A1) and 10 mg/L fermentation (B1) respectively. […]
On the technique in general: ELISA stands for enzyme-linked immunosorbent assay.

Assay [1] has as its target T2, hB7H3-His (human, UniProt Q5ZPR3 29-461, limits assumed).
T2 construct: not shown: His tag
T2 sequence (looked up): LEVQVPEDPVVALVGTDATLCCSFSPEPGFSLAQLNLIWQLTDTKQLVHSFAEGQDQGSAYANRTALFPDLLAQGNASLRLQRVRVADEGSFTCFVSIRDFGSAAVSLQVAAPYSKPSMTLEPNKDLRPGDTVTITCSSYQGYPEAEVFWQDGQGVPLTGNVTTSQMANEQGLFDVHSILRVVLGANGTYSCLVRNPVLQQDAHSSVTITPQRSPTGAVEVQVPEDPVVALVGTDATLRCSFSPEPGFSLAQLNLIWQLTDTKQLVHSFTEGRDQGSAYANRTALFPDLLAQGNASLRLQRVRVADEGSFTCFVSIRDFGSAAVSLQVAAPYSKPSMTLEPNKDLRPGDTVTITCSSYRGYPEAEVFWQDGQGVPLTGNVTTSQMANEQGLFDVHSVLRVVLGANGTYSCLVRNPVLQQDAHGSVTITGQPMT
Put plainly: ELISA, purified VHH. A digest of the protocol: (§1)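 Camel VHH nanobodies were selected by phage panning against recombinant B7H3-Fc and then purified. An ELISA measured their binding to immobilised recombinant proteins, both B7H3 fusion proteins and proteins unrelated to B7H3. The values are the ELISA signal.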

Assay [2] concerns the target T3, monkey B7H3-His (monkey).
T3 chain: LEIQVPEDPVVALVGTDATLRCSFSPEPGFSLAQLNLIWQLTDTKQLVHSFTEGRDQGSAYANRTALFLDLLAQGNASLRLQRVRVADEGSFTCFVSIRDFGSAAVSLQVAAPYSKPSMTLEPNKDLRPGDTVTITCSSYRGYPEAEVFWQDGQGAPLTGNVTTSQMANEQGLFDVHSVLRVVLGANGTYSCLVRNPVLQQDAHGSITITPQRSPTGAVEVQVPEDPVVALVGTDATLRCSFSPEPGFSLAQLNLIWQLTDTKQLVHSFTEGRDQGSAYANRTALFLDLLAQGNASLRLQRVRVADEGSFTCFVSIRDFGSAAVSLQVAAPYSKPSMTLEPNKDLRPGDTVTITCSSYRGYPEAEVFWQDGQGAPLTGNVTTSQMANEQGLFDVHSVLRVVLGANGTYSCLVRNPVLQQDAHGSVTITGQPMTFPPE
Briefly: ELISA, purified VHH. The gist of the method: as §1

In assay [3] the target is T4, rat B7H3-His (rat, UniProt Q7TPB4 29-244, limits assumed).
T4 construct: not shown: His tag
T4 sequence (looked up): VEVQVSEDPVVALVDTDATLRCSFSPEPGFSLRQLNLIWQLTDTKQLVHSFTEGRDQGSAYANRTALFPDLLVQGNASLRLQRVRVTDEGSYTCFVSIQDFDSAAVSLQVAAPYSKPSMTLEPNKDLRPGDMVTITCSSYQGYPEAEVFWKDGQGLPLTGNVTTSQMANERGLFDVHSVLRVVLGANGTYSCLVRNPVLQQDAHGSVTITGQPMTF
Briefly: ELISA, purified VHH. A digest of the protocol: as §1

The target of assay [4] is T2, hB7H3-His. Briefly: ELISA, purified VHH. The gist of the method: as §1
The source holds these as a separate data set.

The target of assay [5] is Non-relevant antigen. Briefly: ELISA, purified VHH. The gist of the method:
as §1

Another assay addresses IgG control. Put plainly: phage ELISA. A digest of the protocol: (§2)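 Camel VHH phage were panned on recombinant B7H3-Fc protein for 3 rounds, using libraries from eight individual camels. Binding of the selected phage to immobilised antigens (human and other-species B7H3 or control proteins) was measured by phage ELISA and recorded as the ELISA signal.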
In assay [6] the target is T3, monkey B7H3-His. Put plainly: phage ELISA, cross-species. A digest of the protocol:
as §2

Assay [7] concerns the target T4, rat B7H3-His. Briefly: phage ELISA, cross-species. A digest of the protocol:
as §2

The next assay has as its target T5, mouse B7H3-His (mouse, UniProt Q8VE98 29-244, limits assumed).
T5 construct: also called recombinant mouse B7H3-His protein; not shown: His tag
T5 sequence (looked up): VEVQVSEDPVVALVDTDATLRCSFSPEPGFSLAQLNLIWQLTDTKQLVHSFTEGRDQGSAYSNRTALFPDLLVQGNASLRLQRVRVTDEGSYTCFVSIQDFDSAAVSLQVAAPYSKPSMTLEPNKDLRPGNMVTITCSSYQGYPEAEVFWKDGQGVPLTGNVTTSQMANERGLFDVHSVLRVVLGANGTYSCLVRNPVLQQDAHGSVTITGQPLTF
Briefly: phage ELISA, cross-species. A digest of the protocol: as §2

The next assay addresses T6, human B7H3 (human, UniProt Q5ZPR3 29-466, limits assumed).
T6 construct: also called human B7H3 protein
T6 sequence (looked up): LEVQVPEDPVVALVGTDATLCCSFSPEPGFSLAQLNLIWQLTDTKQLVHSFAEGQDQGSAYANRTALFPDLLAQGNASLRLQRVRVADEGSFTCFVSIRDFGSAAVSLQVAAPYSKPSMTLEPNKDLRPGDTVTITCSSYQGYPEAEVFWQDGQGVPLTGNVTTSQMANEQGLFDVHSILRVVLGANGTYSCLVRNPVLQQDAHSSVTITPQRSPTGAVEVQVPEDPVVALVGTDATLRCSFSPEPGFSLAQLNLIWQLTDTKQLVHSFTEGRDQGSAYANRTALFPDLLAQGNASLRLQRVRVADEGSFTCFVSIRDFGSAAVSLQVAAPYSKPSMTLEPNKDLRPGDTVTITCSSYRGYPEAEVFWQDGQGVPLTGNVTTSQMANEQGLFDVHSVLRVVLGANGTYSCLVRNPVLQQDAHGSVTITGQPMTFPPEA
Put plainly: phage ELISA, cross-species. A digest of the protocol: as §2

For assay [8], the target named is Non-relevant antigen. Briefly: phage ELISA, cross-species. A digest of the protocol: as §2
For another assay, the target named is PD-L1. Put plainly: ELISA, purified VHH, cross-reaction.
PD-L1, sequence (Q9NZQ7 whole entry): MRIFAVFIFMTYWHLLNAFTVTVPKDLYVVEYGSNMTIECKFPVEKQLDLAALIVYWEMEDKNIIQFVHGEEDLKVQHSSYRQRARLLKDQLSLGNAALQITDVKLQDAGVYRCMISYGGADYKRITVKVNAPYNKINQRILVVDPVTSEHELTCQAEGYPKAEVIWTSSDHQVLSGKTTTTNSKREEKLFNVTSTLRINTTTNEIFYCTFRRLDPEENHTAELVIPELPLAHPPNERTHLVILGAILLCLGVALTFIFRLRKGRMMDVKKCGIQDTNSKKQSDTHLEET

B1: RFB1 (other)
VH: QEQLKESGGRLVTPGTPLTLTCTVSGFSPNNYGVSWVRQPPGKGLEWIGMSSTAGATYYANWAKGRFTISKTSTTVDLEITSPTTEDTATYFCAKGTPSLSYGNIWGPGTLVTVSSGGGGSGGGGSGGGGSAQGPTQTPGGGGSGTEVVVK
notes: Rabbit VH single-domain antibody expressed in E. coli as VH-His-FLAG fusion; also called rabbit antibody RFB1; R1-B1; not shown: 6x His tag and FLAG tag at the C-terminus
Usually EC50 stands for the concentration giving half of the maximal effect. In the assay with B7H3-hFc, B1 registered a concentration for a half-maximal effect (EC50) of 189 nM.

B2: RWB2 (VHH)
VHH: AVQLVDSGGGSVQAGGSLRLSCVVSGYAFSTYDMAWFRQAPGEKCEWVSTVTNNGRTFYADSVKGRFIISRDNAKNILYLQMNSLKPEDTAVYSCAAAGVRWRCASGGNEGTQVTVSS
notes: Camel VHH; tag not described; also called camel antibody RWB2
Take B2: the binding result with hB7H3-His [1] is “no binding”. Further, the ELISA signal with monkey B7H3-His [2] came to 0.0799; with rat B7H3-His [3], 0.0986; with hB7H3-His [4], 0.152; with Non-relevant antigen [5] it was 0.115; in the assay with IgG control it was 0.0777; with monkey B7H3-His [6], 0.578. For the same molecule, the ELISA signal was 0.981 in the assay with rat B7H3-His [7]; 1.05 with mouse B7H3-His; 2.53 in the assay with human B7H3; 0.0684 with Non-relevant antigen [8]; 0.0522 with PD-L1.

B3: RFA1 (other)
VH: QSLEESGGGLVTPGGTLTLTCTVSGFSLSSYGMSWVRQAPGKGLEWIGSMANNGDPYYASWAKGRFTISKTSTTVDLKITSPTTEDTATYFCVRAPWGSHSMWGPGTLVTVSSGGGGSGGGGSGGGGSDPVLTQTAGGGTNVEIK
notes: Rabbit VH single-domain antibody expressed in E. coli as VH-His-FLAG fusion; also called rabbit antibody RFA1; Al [sic]; not shown: 6x His tag and FLAG tag at the C-terminus
B3 showed a half-maximal effective concentration (EC50) with B7H3-hFc of 403 nM.

Source of the values: patent publication US20220380471A1 (US Dept. of Health and Human Services, published 2022).
